{"source": "patent US20120100530", "target": "T1, EcoExo I C98S/C306S/C330T (ONLD0366) C98S/C306S/C330T (Escherichia coli) (UniProt P04995)", "T1 sequence": "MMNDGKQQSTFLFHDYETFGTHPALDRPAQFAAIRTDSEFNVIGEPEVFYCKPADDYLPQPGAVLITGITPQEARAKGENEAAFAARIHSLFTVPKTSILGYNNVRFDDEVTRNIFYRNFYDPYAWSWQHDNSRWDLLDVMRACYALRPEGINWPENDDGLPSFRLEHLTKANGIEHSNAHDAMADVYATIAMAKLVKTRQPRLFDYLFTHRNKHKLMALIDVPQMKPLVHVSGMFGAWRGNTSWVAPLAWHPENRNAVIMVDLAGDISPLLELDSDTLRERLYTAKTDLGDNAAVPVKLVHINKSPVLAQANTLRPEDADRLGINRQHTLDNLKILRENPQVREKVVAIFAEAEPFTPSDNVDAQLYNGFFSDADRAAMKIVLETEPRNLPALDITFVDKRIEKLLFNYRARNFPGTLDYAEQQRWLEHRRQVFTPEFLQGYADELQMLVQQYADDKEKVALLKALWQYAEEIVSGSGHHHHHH", "assay": "cleavage_in_vitro", "conditions": "fluorescein-dT at position 15, BHQ1 on dT at position 1; relative activity of mutants stated higher than wild type", "data": [{"substance": "Exo I assay DNA template", "values": [{"measurement": "activity (relative to wild type)", "value": "> 1"}]}]}
